Reference: patent publication US20230226096A1 (Orna Therapeutics, Inc., priority 2020, published 2023)

B1: Hubei zhaovirus-like virus 1 (nucleic acid)
DNA: GTGCAGGATGGCCTTTCCCATCTTAAGTGGTTTGTAGGATTTCGTGGGTCCATACCCCCCGATTTCTTGGTACGTATTCCATGCACGGAGAATACGACCAAAACTCTTATTTCAAAAAATATTATTTTTTACTCTTGTGGGCTGAGTGCGACCCACCAGTTCCAGCTTAGCAACCTGGAAGTTGTTGGAGATTTATGGAACCAAATTACACATGCGTGGAGTGCCGCCACTCCGTATCTGTTCACTCATTACGCGATTAAGTTCTGCGACGAGACGAGCGAA
B2: Human rhinovirus 1 (nucleic acid, listed as Rhinovirus sp.)
DNA: TTAAAACTGGGTGTGGGTTGTTCCCACCCACACCACCCAATGGGTGTTGTACTCTGTTATTCCGGTAACTTTGTACGCCAGTTTTTCCCTCCCCTCCCCATCCTTTTACGTAACTTAGAAGTTTTAAATACAAGACCAATAGTAGGCAACTCTCCAGGTTGTCTAAGGTCAAGCACTTCTGTTTCCCCGGTTGATGTTGATATGCTCCAACAGGGCAAAAACAACAGATACCGTTATCCGCAAAGTGCCTACACAGAGCTTAGTAGGATTCTGAAAGATCTTTGGTTGGTCGTTCAGCTGCATACCCAGCAGTAGACCTTGCAGATGAGGCTGGACATTCCCCACTGGTAACAGTGGTCCAGCCTGCGTGGCTGCCTGCGCACCTCTCATGAGGTGTGAAGCCAAAGATCGGACAGGGTGTGAAGAGCCGCGTGTGCTCACTTTGAGTCCTCCGGCCCCTGAATGCGGCTAACCTTAAACCTGCAGCCATGGCTCATAAGCCAATGAGTTTATGGTCGTAACGAGTAATTGCGGGATGGGACCGACTACTTTGGGTGTCCGTGTTTCACTTTTTCCTTTATTAATTGCTTATGGTGACAATATATATATTGATATATATTGGCATC
B3: Megirivirus E (nucleic acid)
DNA: GCTTGGCAACCTCATATCGTTACTCTGCCGACCAGTCTGGGTCGTGTGGCCACACAATGGGATTCGTTCTGTTGTGTAGAGTCACATGGCATTACTGGGCTGATCGGTGGGGATCCGTTGCCACCCCTAAACCCTTACATTTACTGGACTGCTTTTCTTGGCCCCGGAATGATTCGCTCACCCGCGATGAGGACTGTTGTTCTTATTATGGCAGGATTACGCGTCTGGTCCGCGTAAGGACTAATTCCTATGTTTATACGTTACTACCTTGTTCTGAACGGTGGGCGCCACCCCGCCTAGTAGGATCCTGGCTTATCGTGTAGACCTCTAGGGACCACATTAGCTAGAGTGTAGGCTGCTATGGATGGAGTAGTGACCCCTTTTTGGGTATCACTCTCTAAGACTCCGGAATGTGTCATAGTACGCTGGAAATCCTTACTTGTTTTTCCATGAGGGGGAGGTGGTGCTGAAATATTGCAAGCCACCCCTCGGTTAAAACAGTTTGGTGCCGCTTATGCCATATTACCGCCCCTTGTAGTTGGGCTGTTTTTGCAGCTCCGGGTTAGTAGAGTACCATAGTGGACGCGGTGTTGGGAATCACCGCCTTGGCTGCACACTGCTTGATAGAGCTGCGGCTGGTCAAGCTAATTGTGGTATAACCAGTTGATTTGGCAT
B4: Hubei tombus-like virus 9 (nucleic acid)
DNA: GGACCATCCAGGCAGGTGTAGGCTAGTACCCTCACCTGACCTGTCGCGATGTTTGGCTTTGTGAGGCTTGTGGGAGGATCCCTTGGCCCATGCATTGCTGCTGTCATCGTGAAAAATGTTGTATGCTCGCACCTGGCGTGGAGGAAACGGCATTTGACGGATGCTAAGGAGGATTTGAAGGTCCTCAACTCCCATGCCTTATTACAAGTCCCCTTTCCTTCAAGCTTCGAGCCCACGTCTGTGACGAGCAGAGGTGAGGTTGGAGTCAAGAGGAGTCCTATTCAAGCTGTTCGCAGCAAGAACCATAAAACTTTCATTGCTCAATGGGCAAGAGCGGCTAAGGCTCGGTTCTCGTTTGCACGACAGTGTGAGCGGAGCCCTGTAAATGTCGCGGCCCTTCATCGGTGGTTTGCATCGGAGTTTAAGAAAATTGGCATGAACTTGCTCCAGGTTTCGTACGTGATCGATGAGGTTGTTGAACTTAGTTTGGAACCAACGTATGAGCGTATGGTGTCCGAAACTAAGAAGCAATTCCGTCATCGGGCACGTATGGAATACTACAACGAGAAAAAATGCCTTGAAAAGATCCACTAGGAACGC
B5: Hubei tombus-like virus 32 (nucleic acid)
DNA: TTCGGGTTTACCCGCGTAAGCGGCCACACTGACTGGTTGTCGGTGTTGAATTTGTATACCAGATGAGGAGACGTTACCACCGTCTCGGCAGTGCTACGTCTGGGAAAGGACTGTGATAGTGGACAGTCCTACCGTCTTTAGATACATTGCGTTGTGTATAGCCCGGGAGGGATTAACTAATAGCAACGCAATGCACACGGCGGTTCGGATTTGCTTGACTGATGGAAAGACATCTAAGTTCTAATTGAACC
B6: EV22 (nucleic acid)
DNA: CCTTATAACCCGACTTGCTGAGCTTCTATAGGAAAAAACCCTTTCCCAGCCTTGGGGTGGCTGGTCAATAAAAACCCCCATAGTAACCAACACCTAAGACAATTTGATCAACCCTATGCCTGGTCCCCACTATTCGAAGGCAACTTGCAATAAGAAGAGTGGAACAAGGATGCTTAAAGCATAGTGTAAATGATCTTTTCTAACCTGTATTATGTACAGGGTGGCAGATGGCGTGCCATAAATCTATTAGTGGGATACCACGCTTGTGGACCTTATGCCCACACAGCCATCCTCTAGTAAGTTTGTAAAATGTCTGGTGAGATGTGGGAACTTATTGGAAACAACAATTTGCTTAATAGCATCCTAGTGCCAGCGGAACAACATCTGGTAACAGATGCCTCTGGGGCCAAAAGCCAAGGTTTGACAGACCCATTAGGATTGGTTTCAAAACCTGAATTGTTGTGGAAGATATTCAGTACCTATCAATCTGGTAGTGGTGCAAACACTAGTTGTAAGGCCCACGAAGGATGCCCAGAAGGTACCCGCAGGTAACAAGAGACACTGTGGATCTGATCTGGGGCCAACTACCTCTATCAGGTGAGTTAGTTAAAAAACGTCTAGTGGGCCAAACCCAGGGGGGATCCCTGGTTTCCTTTTATTGTTAATATTGACATT
B7: Human TMEV-like cardiovirus (nucleic acid, listed as Cardiovirus sp.)
DNA: TCCGACGTGGTTGGAATTAACATCTTTTCCGACGAAAGTGCTATTATGCCTCCCCGATTGTGTGATGCTTTCTGCCCTGCTGGGCGGAGCGTCCTCGGGTTGAGAAACCTTGAATCTTTTCCTTTGGAGCCTTGGCTCCCCCGGTCTAAGCCGCTTGGAATATGACAGGGTTATTTTCCAAACTCTTTATTTCTACTTTCATGGGTTCTATCCATGAAAAGGGTATGTGTTGCCCCTTCCTTCTTTGGAGAATCTGCGCGGCGGTCTTTCCGTCTCTCAACAGGCGTGGATGCAACATGCCGGAAACGGTGAAGAAAACAGTTTTCTGTGGAAATTTAGAGTGGACATCGAAACAGCTGTAGCGACCTCACAGTAGCAGCGGATTCCCCTCTTGGCGACAAGAGCCTCTGCGGCCAAAAGCCCCGTGGATAAGATCCACTGCTGTGAGCGGTGCAACCCCAGCACCCTGGTTCGATGGCCATTCTCTATGGAACCAGAAAATGGTTTTCTCAAGCCCTCCGGTAGAGAAGCCAAGAATGTCCTGAAGGTACCCCGCGCGCGGGATCTGATCAGGAGACCAATTGGCAGTGCTTTACGCTGCCACTTTGGTTTAAAAACTGTCACAGCTTCTCCAAACCAAGTGGTCTTGGTTTTCCAATTTTGTTGACTGACAAT
B8: Goat torovirus (nucleic acid, listed as Torovirus sp.)
DNA: GTACTTACAAGCGGGTTAAACCGCCCTCCGGAACGGTTACAACCCCCTCCCGAACGTGCGCTTGACGTGACTGGTTCTCAGTCTGGCTTTCTGAGAAATACTCCAGGGTTGTATCCCACCATCTTGACCTCTGGTCATTTTGGTAACACCATAACCAAACAAACTCTACACACCTAACCCACCTCCAGCTTGCTGCAGGCCTTTTGGACTAAACGGGTTTAGGTGTTTTGTGACCAACTCGTCTACCCACCTCCAGTTTTACTGCAGGCCTTTTTGGACTAAACGGCTTTAGACTTTTGTGGTTAGTTTTTAACTACCCACTGTTTAGCCGCCAACCTGATTTTCATTGTTGTAAAATTTTGTGTTTATACACTATTTTCATACGGTTGGCAGTTTGTTTGGTTGTTTGCACAGTTTTTGTTGATACCAATTTTTACTGTGCTTTTAGTGTATTCTGCTAAGGCTGTATTTTACATACTTAGTTTGGTTGAAGCAATTTTTACAACATTTATATTGTTTTTGATTTCTAAGGTAAAGAGTCTTAGGAAACACCATAGACGCCATTCTTGTGGTGTCTAGTTCCAACTAATCTGGCAAACAAGTACCAAGTCATTGACTCACTTTGGAGTGAGACTTACGAGTACCAATTTGCCTATTTCGGACATCCATATAAAG
B9: Feline infectious peritonitis virus (nucleic acid)
DNA: ACTTTTAAAGTAAAGTGAGTGTAGCGTGGCTATAACTCTTCTTTTACTTTAACTAGCCTTGTGCTAGATTTGTCTTCGGACACCAACTCGAACTAAACGAAATATTTGTCTCTCTATGAAACCATAGAAGACAAGCGTTGATTATTTCACCAGTTTGGCAATCACTCCTAGGAACGGGGTTGAGAGAACGGCGCACCAGGGTTCCGTCCCTGTTTGGTAAGTCGTCTAGTATTAGCTGCGGCGGTTCCGCCCGTCGTAGTTGGGTAGACCGGGTTCCGTCCTGTGATCTCCCTCGCCGGCCGCCAGGAGA
B10: Farmington virus (nucleic acid)
DNA: ACGACGCATAAGCAGAGAAACATAAGAGACTATGTTCATAGTCACCCTGTATTCATTATTGACTTTTATGACCTATTATTAGACCCTTCACGGGTAAATCCTTCTCCTTGCAGTTCTCGCCAAGTACCTCCAAAGTCAGAACG
B11: Avian infectious bronchitis virus (nucleic acid)
DNA: ACTTAAGATAGATATTAATATATATCTATTACACTAGCCTTGCGCTAGATTTTTAACTTAACAAAACGGACTTAAATACCTACAGCTGGTCCTCATAGGTGTTCCATTGCAGTGCACTTTAGTGCCCTGGATGGCACCTGGCCACCTGTCAGGTTTTTGTTATTAAAATCTTATTGTTGCTGGTATCACTGCTTGTTTTGCCGTGTCTCACTTTATACATCTGTTGCTTGGGCTACCTAGTGTCCAGCGTCCTACGGGCGTCGTGGCTGGTTCGAGTGCGAGGAACCTCTGGTTCATCTAGCGGTAGGCGGGTGTGTGGAAGTAGCACTTCAGACGTACCGGTTCTGTTGTGTGAAATACGGGGTCACCTCCCCCCACATACCTCTAAGGGCTTTTGAGCCTAGCGTTGGGCTACGTTCTCGCATAAGGTCGGCTATACGACGTTTGTAGGGGGTAGTGCCAAACAACCCCTGAGGTGACAGGTTCTGGTGGTGTTTAGTGAGCAGACATACAATAGACAGTGACAAC

Tested on: HEK293 cells
Assay type: cell-based, human
Conditions: luminescence from secreted Gluc in supernatant 24 hours after transfection of HEK293 cells; circular RNA encoding Gluc with the named IRES (UTR truncated to 675 nt)

Molecule	Expression
B1	1.03E+05
B2	7.40E+07
B3	1.10E+07
B4	9.28E+04
B5	9.23E+04
B6	1.95E+07
B7	4.48E+07
B8	1.19E+05
B9	1.35E+05
B10	1.22E+05
B11	2.84E+05
